Data reported in patent US20230226223A1 (SOLA BIOSCIENCES, published 2023).
Where two headings read alike, the source gives them in different places.

Tests used:
Assay in all cases: cell-based or functional assay
[1] = target: GFP-HTTQ74 reporter construct
[2] = target: GFP-HTTQ74 reporter construct; remark: listed apart in the source
[3] = target: GFP-HTTQ74 reporter construct; remark: listed apart in the source
[4] = target: GFP-HTTQ74 reporter construct; remark: listed apart in the source
[5] = target: GFP-HTTQ74 reporter construct; remark: listed apart in the source

Row | Binder | Reduction (%) of protein aggregation [2] [%] | % Aggregation (relative to Q74 alone), filter trap assay [3] [%] | also measured
1 | Construct 34, JB1-QBP1-QBP1 (1) (designed binder) MGKDYYQTLGLARGASDEEIKRAYRRQALRYHPDKNKEPGAEEKFKEIAEAYDVLSDPRKREIFDRYGEEGLKGSGGGGSGGGGSGGGGSGGGGSAAASNWKWWPGIFDLEGDYKDDDDKGSRAAASNWKWWPGIFDLE | 96.1 | – | Reduction of Aggregation (%), filter trap assay [1]: 96.3%
2 | Construct 4, JB1-2XQBP1 (designed binder) MGKDYYQTLGLARGASDEEIKRAYRRQALRYHPDKNKEPGAEEKFKEIAEAYDVLSDPRKREIFDRYGEEGLKGSDIGGGGSGGGGSGGGGSGGGGSAAASNWKWWPGIFDGLESNWKWWPGIFD | – | 24.9 | Reduction of Aggregation (%), filter trap assay [1]: 24.9%; % Aggregation (relative to Q74 alone), filter trap assay [4]: 9.86%; % Aggregation (relative to Q74 alone), filter trap assay [5]: 29.7%
3 | Construct 61, JC7-QBP1-QBP1 (designed binder) MDYYKILGVDKNASEDEIKKAYRKRALMHHPDRHSGASAEVQKEEEKKFKEVGEAFTILSDPKKKTRYDSGQDIGGGGSGGGGSGGGGSAAASNWKWWPGIFDLEGDYKDDDDKGSRAAASNWKWWPGIFDLE | 89 | – | –
4 | Construct 62, DnaJ-QBP1-QBP1 (designed binder) MAKQDYYEILGVSKTAEEREIRKAYKRLAMKYHPDRNQGDKEAEAKFKEIKEAYEVLTDSQKRAAYDQYGHADIGGGGSGGGGSGGGGSAAASNWKWWPGIFDLEGDYKDDDDKGSRAAASNWKWWPGIFDLE | 15.7 | – | –
5 | Construct 16, JB1-2XQBP1 (rigid linker) (designed binder) MGKDYYQTLGLARGASDEEIKRAYRRQALRYHPDKNKEPGAEEKFKEIAEAYDVLSDPRKREIFDRYGEEGLKGSDIEAAAKAAASNWKWWPGIFDGLESNWKWWPGIFD | – | 17.6 | –
6 | Construct 15, JB1-2XQBP1 (no flexible linker) (designed binder) MGKDYYQTLGLARGASDEEIKRAYRRQALRYHPDKNKEPGAEEKFKEIAEAYDVLSDPRKREIFDRYGEEGLKGSDIAAASNWKWWPGIFDGLESNWKWWPGIFD | – | 24.5 | –
7 | Construct 59, JB13-QBP1-QBP1 (designed binder) MGQDYYSVLGITRNSEDAQIKQAYRRLALKHHPLKSNEPSSAEIFRQIAEAYDVLSDPMKRGIYDKFGEEGLKGGDIGGGGSGGGGSGGGGSAAASNWKWWPGIFDLEGDYKDDDDKGSRAAASNWKWWPGIFDLE | -27 | – | –
